Target: HIV-1 glycoprotein gp120 (HIV-1) (UniProt P04578)
Experiment: ELISA

## recombinant 2G12 mAb (IgG1) (antibody)
  EC50: 2.3 pM

Source: article PMC5632219
